Measurements from the supplement of paper PMC10899765.

How the values were obtained:
Details in all cases: 20 nM; 72 h
[1] = test system: MCF10A; assay: 5+ nucleoli phenotype percent effect (relative to siNT 0% and siKIF11 100%); higher = more cells with five or more nucleoli
Description: (§1)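 After 72 h, cells were fixed and stained with Hoechst and anti-fibrillarin, and nucleoli per nucleus were counted with CellProfiler. Values are plate-adjusted percent effect for the one-nucleolus and 5+ nucleoli phenotypes, normalised to siNT (0%) and to the positive controls siNOL11 or siKIF11 (100%), as the mean of biological triplicates. Percent viability is the nuclei count relative to siNT.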

[2] = test system: MCF10A; assay: percent viability (nuclei count relative to siNT); higher = more viable cells
Description: as §1

[3] = test system: MCF10A; assay: one-nucleolus phenotype percent effect (relative to siNT 0% and siNOL11 100%); higher = more cells with one nucleolus (ribosome biogenesis inhibition)
Description: as §1

Sequence: GAUCCAUCUCUGCCUGUAUUGGC [hsa-miR-7151-5p]
- 5+ nucleoli phenotype percent effect [1]: -8.39%
- percent viability [2]: 80.6%
- one-nucleolus phenotype percent effect [3]: 5.88%

Sequence: AUCCUAGUCACGGCACCA [hsa-miR-7975]
- 5+ nucleoli phenotype percent effect [1]: -29.1%
- percent viability [2]: 43.7%
- one-nucleolus phenotype percent effect [3]: 12.9%

Sequence: UUGGCCACCACACCUACCCCUU [hsa-miR-4701-5p]
- 5+ nucleoli phenotype percent effect [1]: 19.1%
- percent viability [2]: 35.9%
- one-nucleolus phenotype percent effect [3]: 1.71%

Sequence: CAGGGCCAGGCACAGAGUAAG [hsa-miR-6895-5p]
- 5+ nucleoli phenotype percent effect [1]: 0.712%
- percent viability [2]: 41.8%
- one-nucleolus phenotype percent effect [3]: 13.8%

Sequence: AGGGACCUGAGUGUCUAAG [hsa-miR-3649]
- 5+ nucleoli phenotype percent effect [1]: -0.628%
- percent viability [2]: 71%
- one-nucleolus phenotype percent effect [3]: 9.08%

Sequence: AGGUUGACAUACGUUUCCC [hsa-miR-563]
- 5+ nucleoli phenotype percent effect [1]: 46.2%
- percent viability [2]: 70.5%
- one-nucleolus phenotype percent effect [3]: -18%

Sequence: GUGAGGCGGGGCCAGGAGGGUGUGU [hsa-miR-6765-5p]
- 5+ nucleoli phenotype percent effect [1]: 16%
- percent viability [2]: 72.9%
- one-nucleolus phenotype percent effect [3]: -21.4%

Sequence: UACUUUUCUAGGUUGUUGGGG [hsa-miR-5003-3p]
- 5+ nucleoli phenotype percent effect [1]: -39.5%
- percent viability [2]: 24.9%
- one-nucleolus phenotype percent effect [3]: 55.6%

Sequence: UGGGGAGCUGAGGCUCUGGGGGUG [hsa-miR-939-5p]
- 5+ nucleoli phenotype percent effect [1]: 17%
- percent viability [2]: 82.5%
- one-nucleolus phenotype percent effect [3]: -7.29%

Sequence: GGUUGGGCAGUGAGGAGGGUGUGA [hsa-miR-3147]
- 5+ nucleoli phenotype percent effect [1]: 31%
- percent viability [2]: 26%
- one-nucleolus phenotype percent effect [3]: -13.3%

Sequence: CAGUGAUCGUCUCUGCUGGC [hsa-miR-8079]
- 5+ nucleoli phenotype percent effect [1]: -35%
- percent viability [2]: 41.6%
- one-nucleolus phenotype percent effect [3]: 6.32%

Sequence: AAUGCACCCGGGCAAGGAUUCU [hsa-miR-501-3p]
- 5+ nucleoli phenotype percent effect [1]: -14.1%
- percent viability [2]: 48.2%
- one-nucleolus phenotype percent effect [3]: 10.8%

Sequence: UUGGGGAUUGGGUCAGGCCAGU [hsa-miR-6857-5p]
- 5+ nucleoli phenotype percent effect [1]: -18%
- percent viability [2]: 6.01%
- one-nucleolus phenotype percent effect [3]: 29.9%

Sequence: AGGAUGAGCAAAGAAAGUAGAUU [hsa-miR-1255a]
- 5+ nucleoli phenotype percent effect [1]: 55.6%
- percent viability [2]: 128%
- one-nucleolus phenotype percent effect [3]: -24.4%

Sequence: UGAGACAGGCUUAUGCUGCUAU [hsa-miR-4524a-3p]
- 5+ nucleoli phenotype percent effect [1]: 8.73%
- percent viability [2]: 21.6%
- one-nucleolus phenotype percent effect [3]: 24.8%

Sequence: UGGCUGUUGGAGGGGGCAGGC [hsa-miR-4687-3p]
- 5+ nucleoli phenotype percent effect [1]: -1.42%
- percent viability [2]: 23.1%
- one-nucleolus phenotype percent effect [3]: 25.6%

Sequence: UGAGAUGACACUGUAGCU [hsa-miR-4770]
- 5+ nucleoli phenotype percent effect [1]: -3.17%
- percent viability [2]: 33.4%
- one-nucleolus phenotype percent effect [3]: 11.7%

Sequence: UUCACAAGGAGGUGUCAUUUAU [hsa-miR-513b]
- 5+ nucleoli phenotype percent effect [1]: -29.7%
- percent viability [2]: 62.4%
- one-nucleolus phenotype percent effect [3]: 14.2%

Sequence: UAGGAUUACAAGUGUCGGCCAC [hsa-miR-3159]
- 5+ nucleoli phenotype percent effect [1]: -4.52%
- percent viability [2]: 44.9%
- one-nucleolus phenotype percent effect [3]: -5%

Sequence: UGAGACCUCUGGGUUCUGAGCU [hsa-miR-769-5p]
- 5+ nucleoli phenotype percent effect [1]: 9.63%
- percent viability [2]: 47.4%
- one-nucleolus phenotype percent effect [3]: 7.1%

Sequence: UCAUUAUAUGUAUGAUCUGGAC [hsa-miR-4528]
- 5+ nucleoli phenotype percent effect [1]: -2.39%
- percent viability [2]: 57.6%
- one-nucleolus phenotype percent effect [3]: -16.8%

Sequence: UGCCCCAUCUGUGCCCUGGGUAGGA [hsa-miR-3189-5p]
- 5+ nucleoli phenotype percent effect [1]: 42.8%
- percent viability [2]: 52.5%
- one-nucleolus phenotype percent effect [3]: 1.04%

Sequence: ACUUUCCUCACUCCCGUGAAGU [hsa-miR-3124-3p]
- 5+ nucleoli phenotype percent effect [1]: 49.4%
- percent viability [2]: 115%
- one-nucleolus phenotype percent effect [3]: -15.5%

Sequence: GAGGCUGAUGUGAGUAGACCACU [hsa-miR-3929]
- 5+ nucleoli phenotype percent effect [1]: -13.8%
- percent viability [2]: 30.5%
- one-nucleolus phenotype percent effect [3]: 14.1%

Sequence: UGAGGUAGUAGGUUGUGUGGUU [hsa-let-7b-5p]
- 5+ nucleoli phenotype percent effect [1]: 33.9%
- percent viability [2]: 22.8%
- one-nucleolus phenotype percent effect [3]: -9.82%
